Assay [1] concerns the target HIV-1 Env of virus strain 6471.V1.C16 (HIV-1). Put plainly: cell-based or functional assay.
In assay [2] the target is BG505 SOSIP.664 Env trimer (HIV-1). Put plainly: negative stain EM of the complex, 6:1 molar ratio.

Data on two molecules can be found in patent US20200123236A1.

B1: 10E8 IgG (antibody, V domains shown)
VH: EVQLVESGGGLVKPGGSLRLSCSASGFDFDNAWMTWVRQPPGKGLEWVGRITGPGEGWSVDYAAPVEGRFTISRLNSINFLYLEMNNLRMEDSGLYFCARTGKYYDFWSGYPPGEEYFQDWGRGTLVTVSS
VL: SYELTQETGVSVALGRTVTITCRGDSLRSHYASWYQKKPGQAPILLFYGKNNRPSGVPDRFSGSASGNRASLTISGAQAEDDAEYYCSSRDKSGSRLSVFGGGTKLTVL
B1 gave an IC50, neutralization of Env-pseudovirus on TZM-bl cells in assay [1] of 4.98 µg/mL.

B2: Bi-ScFv dVRC01-5X-PGT121 (bispecific antibody)
scFv: SLTQSPGTLSLSPGETAIISCRTSQYGSLAWYQQRPGQAPRLVIYSGSTRAAGIPDRFSGSRWGPDYNLTISNLESGDFGVYYCQQYEFFGQGTKVQVDIKGGGGSGGGGSGGGGSQVQLVQSGGQMKKPGESMRISCRASGYEFIDCTLNWIRLAPGKRPEWMGWLKPRGGAVNYARPLQGRVTMTRDVYSDTAFLELRSLTVDDTAVYFCTRGKNCDYNWDFEHWGRGTPVIVSSGGGGSGGGGSGGGGSGGGGSGGGGSSDISVAPGETARISCGEKSLGSRAVQWYQHRAGQAPSLIIYNNQDRPSGIPERFSGSPDSPFGTTATLTITSVEAGDEADYYCHIWDSRVPTKWVFGGGTTLTVLGGGGSGGGGSGGGGSQMQLQESGPGLVKPSETLSLTCSVSGASISDSYWSWIRRSPGKGLEWIGYVHKSGDTNYSPSLKSRVNLSLDTSKNQVSLSLVAATAADSGKYYCARTLHGRRIYGIVAFNEWFTYFYMDVWGNGTQVTVSSGSGHHHHHH
In the case of B2, the Bi-ScFvs bound per Env trimer (Bi-ScFv per Env trimer) in assay [2] came out at 3.
